{
  "source": "paper PMC3069016",
  "about": "(Molecular Biology of the Cell, 2011)",
  "target": "T1, Csn10-CBP-A2 (S. cerevisiae, UniProt Q12348 1-645)",
  "T1 sequence (looked up)": "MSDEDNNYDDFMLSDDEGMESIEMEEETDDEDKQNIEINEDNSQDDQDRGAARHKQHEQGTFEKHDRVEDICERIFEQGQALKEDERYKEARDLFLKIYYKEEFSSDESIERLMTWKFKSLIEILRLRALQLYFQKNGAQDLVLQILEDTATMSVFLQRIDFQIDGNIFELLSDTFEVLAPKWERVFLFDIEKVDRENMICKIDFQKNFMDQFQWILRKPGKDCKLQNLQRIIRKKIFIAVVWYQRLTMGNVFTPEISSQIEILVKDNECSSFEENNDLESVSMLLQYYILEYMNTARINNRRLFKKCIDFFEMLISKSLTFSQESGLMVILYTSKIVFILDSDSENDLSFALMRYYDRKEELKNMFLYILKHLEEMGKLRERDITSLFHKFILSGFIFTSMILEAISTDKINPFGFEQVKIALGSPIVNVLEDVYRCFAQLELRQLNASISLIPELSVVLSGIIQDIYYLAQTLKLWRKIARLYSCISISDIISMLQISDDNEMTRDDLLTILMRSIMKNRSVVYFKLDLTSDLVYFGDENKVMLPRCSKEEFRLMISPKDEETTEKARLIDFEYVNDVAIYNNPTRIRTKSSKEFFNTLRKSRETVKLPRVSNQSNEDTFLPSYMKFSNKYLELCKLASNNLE",
  "test": "affinity purification with mass spectrometry",
  "data": [
    {"binder": "Rpn5 (natural protein, S. cerevisiae, UniProt Q12250 1-445, looked up) MSRDAPIKADKDYSQILKEEFPKIDSLAQNDCNSALDQLLVLEKKTRQASDLASSKEVLAKIVDLLASRNKWDDLNEQLTLLSKKHGQLKLSIQYMIQKVMEYLKSSKSLDLNTRISVIETIRVVTENKIFVEVERARVTKDLVEIKKEEGKIDEAADILCELQVETYGSMEMSEKIQFILEQMELSILKGDYSQATVLSRKILKKTFKNPKYESLKLEYYNLLVKISLHKREYLEVAQYLQEIYQTDAIKSDEAKWKPVLSHIVYFLVLSPYGNLQNDLIHKIQNDNNLKKLESQESLVKLFTTNELMRWPIVQKTYEPVLNEDDLAFGGEANKHHWEDLQKRVIEHNLRVISEYYSRITLLRLNELLDLTESQTETYISDLVNQGIIYAKVNRPAKIVNFEKPKNSSQLLNEWSHNVDELLEHIETIGHLITKEEIMHGLQAK", "values": [
      {"measurement": "stoichiometry N", "result": 1}
    ]}
  ]
}
